Results on two molecules are retold here after PMC7863765 (Journal of Molecular Biology, 2021).

For this assay, the target named is T1, polyphosphorylated full-length SARS-CoV-2 nucleocapsid protein pN.1-419 (SARS-CoV-2, UniProt P0DTC9 1-419).
T1 construct: also called phosphorylated N; polyphosphorylated N; not shown: His6, N-terminal, kept
The assay is described as follows: SEC. Particulars: both partners purified.

B1: full-length human 14-3-3ε (as used in the SEC titration) (natural protein, UniProt P62258 1-255, looked up)
chain: MDDREDLVYQAKLAEQAERYDEMVESMKKVAGMDVELTVEERNLLSVAYKNVIGARRASWRIISSIEQKEENKGGEDKLKMIREYRQMVETELKLICCDILDVLDKHLIPAANTGESKVFYYKMKGDYHRYLAEFATGNDRKEAAENSLVAYKAASDIAMTELPPTHPIRLGLALNFSVFYYEILNSPDRACRLAKAAFDDAIAELDTLSEESYKDSTLIMQLLRDNLTLWTSDMQGDGEEQNKEALQDVEDENQ
notes: human 14-3-3 protein epsilon, full length; Same construct as m21 (TEV-cleavable His6-tag)
What is called Kd is the free concentration of one partner at which half of the binding sites on the other are occupied at equilibrium, for simple one-to-one binding. Low values mean tighter binding, high ones weaker binding. Take B1: the Kd amounted to 10.7 µM and the “stoichiometry N” value is ~1 14-3-3ε chains per pN.1-419 chain (2:2).

B2: untagged full-length human 14-3-3ζ (natural protein, UniProt P63104 1-245, looked up)
chain: MDKNELVQKAKLAEQAERYDDMAACMKSVTEQGAELSNEERNLLSVAYKNVVGARRSSWRVVSSIEQKTEGAEKKQQMAREYREKIETELRDICNDVLSLLEKFLIPNASQAESKVFYLKMKGDYYRYLAEVAAGDDKKGIVDQSQQAYQEAFEISKKEMQPTHPIRLGLALNFSVFYYEILNSPEKACSLAKTAFDEAIAELDTLSEESYKDSTLIMQLLRDNLTLWTSDTQGDEAEAGEGGEN
notes: human 14-3-3 protein zeta, full length, untagged; also called wild-type dimeric 14-3-3ζ
Consider B2, for which the binding result was “binds”.
